Legend:
Experiment in all cases: holdup assay
Set-up in all cases: key: below the threshold = too weak to quantify, mostly under pKd 3.1 to 4
Settings in all cases: plain residues with an end cap or a label only (N-terminal biotin on a linker: ado-ado)
MAGI1_1, Q96QZ7 = target: MAGI1_1, Q96QZ7
APBA1_1, Q02410 = target: T1, APBA1_1, Q02410
T1 sequence (Q02410 651-752, limits assumed, looked up): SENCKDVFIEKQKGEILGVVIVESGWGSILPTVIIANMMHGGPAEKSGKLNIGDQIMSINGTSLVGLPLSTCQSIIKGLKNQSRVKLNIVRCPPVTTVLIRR

NHERF3_3, Q5T2W1 = target: T2, NHERF3_3, Q5T2W1
T2 sequence (Q5T2W1 238-333, limits assumed, looked up): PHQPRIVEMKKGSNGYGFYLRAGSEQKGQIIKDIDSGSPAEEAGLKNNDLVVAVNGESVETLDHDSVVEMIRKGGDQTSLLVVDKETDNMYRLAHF

GRIP1_5, Q9Y3R0 = target: T3, GRIP1_5, Q9Y3R0
T3 sequence (Q9Y3R0 568-668, limits assumed, looked up): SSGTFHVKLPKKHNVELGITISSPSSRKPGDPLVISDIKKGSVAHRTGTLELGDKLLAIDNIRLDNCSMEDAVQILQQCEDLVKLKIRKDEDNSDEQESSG

FRMPD3, Q5JV73 = target: FRMPD3, Q5JV73
SYNJ2BP, P57105 = target: T4, SYNJ2BP, P57105
T4 sequence (P57105 8-110, limits assumed, looked up): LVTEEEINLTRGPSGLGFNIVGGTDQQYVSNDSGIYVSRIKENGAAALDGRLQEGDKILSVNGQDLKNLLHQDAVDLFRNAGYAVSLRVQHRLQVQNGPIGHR

LNX2_2, Q8N448 = target: T5, LNX2_2, Q8N448
T5 sequence (Q8N448 334-432, limits assumed, looked up): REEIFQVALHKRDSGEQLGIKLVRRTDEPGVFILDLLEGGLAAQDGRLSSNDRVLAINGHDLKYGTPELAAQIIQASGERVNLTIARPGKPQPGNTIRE

DLG2_3, Q15700 = target: DLG2_3, Q15700
GRIP2_4, Q9C0E4 = target: GRIP2_4, Q9C0E4
HTRA1, Q92743 = target: HTRA1, Q92743
IL16_3, Q14005 = target: IL16_3, Q14005
DLG4_2, P78352 = target: DLG4_2, P78352
MPP2, Q14168 = target: T6, MPP2, Q14168
T6 sequence (Q14168 180-250, limits assumed, looked up): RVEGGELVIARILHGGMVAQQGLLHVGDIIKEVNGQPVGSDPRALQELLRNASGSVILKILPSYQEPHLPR

GRID2IP_2, A4D2P6 = target: GRID2IP_2, A4D2P6
Inadl_8, Q8NI35 = target: Inadl_8, Q8NI35
DLG3_2, Q92796 = target: T7, DLG3_2, Q92796
T7 sequence (Q92796 221-321, limits assumed, looked up): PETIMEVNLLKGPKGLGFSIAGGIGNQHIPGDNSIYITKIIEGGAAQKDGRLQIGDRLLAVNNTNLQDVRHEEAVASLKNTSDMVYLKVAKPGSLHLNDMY

DLG4_1, P78352 = target: DLG4_1, P78352
APBA2_1, Q99767 = target: T8, APBA2_1, Q99767
T8 sequence (Q99767 563-664, limits assumed, looked up): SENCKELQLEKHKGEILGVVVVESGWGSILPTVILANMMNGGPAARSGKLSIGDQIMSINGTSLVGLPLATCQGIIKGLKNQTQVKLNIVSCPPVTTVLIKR

PDLIM1, O00151 = target: PDLIM1, O00151
RHPN1, Q8TCX5 = target: T9, RHPN1, Q8TCX5
T9 sequence (Q8TCX5 508-602, limits assumed, looked up): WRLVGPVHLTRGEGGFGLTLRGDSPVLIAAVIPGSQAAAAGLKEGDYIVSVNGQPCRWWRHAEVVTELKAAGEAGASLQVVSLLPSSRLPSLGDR

APBA1_2, Q02410 = target: T10, APBA1_2, Q02410
T10 sequence (Q02410 742-832, limits assumed, looked up): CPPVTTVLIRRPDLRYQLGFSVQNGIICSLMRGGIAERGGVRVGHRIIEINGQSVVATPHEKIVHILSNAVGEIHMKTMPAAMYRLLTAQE

PICK1, Q9NRD5 = target: PICK1, Q9NRD5
GRIP2_5, Q9C0E4 = target: GRIP2_5, Q9C0E4
GRIP1_3, Q9Y3R0 = target: T11, GRIP1_3, Q9Y3R0
T11 sequence (Q9Y3R0 247-346, limits assumed, looked up): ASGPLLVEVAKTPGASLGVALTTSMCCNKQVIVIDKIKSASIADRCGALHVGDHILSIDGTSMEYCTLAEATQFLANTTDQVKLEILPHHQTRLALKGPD

NHERF3_1, Q5T2W1 = target: T12, NHERF3_1, Q5T2W1
T12 sequence (Q5T2W1 4-100, limits assumed, looked up): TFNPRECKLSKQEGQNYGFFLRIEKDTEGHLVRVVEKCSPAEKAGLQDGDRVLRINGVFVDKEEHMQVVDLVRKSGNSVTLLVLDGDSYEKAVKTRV

NOS1, P29475 = target: NOS1, P29475
Sequence of NOS1, P29475 (P29475 9-101): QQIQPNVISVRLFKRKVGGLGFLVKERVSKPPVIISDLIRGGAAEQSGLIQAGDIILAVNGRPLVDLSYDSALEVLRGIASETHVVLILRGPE

Sequence of HTRA1, Q92743 (Q92743 360-477): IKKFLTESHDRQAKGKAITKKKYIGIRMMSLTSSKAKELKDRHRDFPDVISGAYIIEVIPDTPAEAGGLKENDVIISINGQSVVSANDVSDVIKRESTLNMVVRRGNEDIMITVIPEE
Sequence of DLG4_1, P78352 (P78352 62-152): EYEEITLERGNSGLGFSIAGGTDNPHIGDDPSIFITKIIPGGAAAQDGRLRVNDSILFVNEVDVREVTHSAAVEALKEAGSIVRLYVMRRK
Sequence of MAGI1_1, Q96QZ7 (Q96QZ7 1-106): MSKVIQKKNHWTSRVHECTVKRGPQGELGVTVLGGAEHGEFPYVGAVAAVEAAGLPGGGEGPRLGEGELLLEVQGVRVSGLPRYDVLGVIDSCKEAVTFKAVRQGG
Sequence of IL16_3, Q14005 (Q14005 1107-1207): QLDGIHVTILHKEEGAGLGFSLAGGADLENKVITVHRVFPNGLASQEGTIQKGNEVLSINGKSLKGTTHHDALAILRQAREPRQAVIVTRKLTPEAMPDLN
Sequence of FRMPD3, Q5JV73 (Q5JV73 12-100): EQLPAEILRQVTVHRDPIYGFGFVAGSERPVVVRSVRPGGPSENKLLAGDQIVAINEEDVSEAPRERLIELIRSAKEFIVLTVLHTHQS
Sequence of GRIP2_5, Q9C0E4 (Q9C0E4 544-642): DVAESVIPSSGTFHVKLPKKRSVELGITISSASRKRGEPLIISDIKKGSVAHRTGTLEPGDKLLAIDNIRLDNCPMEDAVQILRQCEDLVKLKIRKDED
Sequence of GRID2IP_2, A4D2P6 (A4D2P6 272-370): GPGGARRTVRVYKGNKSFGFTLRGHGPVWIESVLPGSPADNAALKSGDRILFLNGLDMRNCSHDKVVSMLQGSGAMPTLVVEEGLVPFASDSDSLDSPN
Sequence of DLG4_2, P78352 (P78352 155-259): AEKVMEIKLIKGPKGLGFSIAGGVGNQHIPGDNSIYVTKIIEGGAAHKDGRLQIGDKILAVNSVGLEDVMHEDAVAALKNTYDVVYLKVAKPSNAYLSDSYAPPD
Sequence of Inadl_8, Q8NI35 (Q8NI35 1425-1530): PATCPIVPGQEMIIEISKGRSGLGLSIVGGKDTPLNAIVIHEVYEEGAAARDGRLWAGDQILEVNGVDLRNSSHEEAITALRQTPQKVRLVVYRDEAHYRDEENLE
Sequence of GRIP2_4, Q9C0E4 (Q9C0E4 446-548): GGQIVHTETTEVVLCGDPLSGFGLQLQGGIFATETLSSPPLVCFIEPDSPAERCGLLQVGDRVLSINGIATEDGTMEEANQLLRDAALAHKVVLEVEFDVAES
Sequence of PDLIM1, O00151 (O00151 1-87): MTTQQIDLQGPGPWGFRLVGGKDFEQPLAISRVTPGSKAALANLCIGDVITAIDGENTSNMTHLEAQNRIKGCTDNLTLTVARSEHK
Sequence of PICK1, Q9NRD5 (Q9NRD5 17-115): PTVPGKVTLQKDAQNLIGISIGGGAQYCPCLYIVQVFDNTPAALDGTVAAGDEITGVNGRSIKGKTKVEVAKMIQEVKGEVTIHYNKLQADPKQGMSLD

pKd (MAGI1_1, Q96QZ7) | pKd (APBA1_1, Q02410) | pKd (NHERF3_3, Q5T2W1) | pKd (GRIP1_5, Q9Y3R0) | pKd (FRMPD3, Q5JV73) | pKd (SYNJ2BP, P57105) | pKd (LNX2_2, Q8N448) | pKd (DLG2_3, Q15700) | pKd (GRIP2_4, Q9C0E4) | pKd (HTRA1, Q92743) | pKd (IL16_3, Q14005) | pKd (DLG4_2, P78352) | pKd (MPP2, Q14168) | pKd (GRID2IP_2, A4D2P6) | pKd (Inadl_8, Q8NI35) | pKd (DLG3_2, Q92796) | pKd (DLG4_1, P78352) | pKd (APBA2_1, Q99767) | pKd (PDLIM1, O00151) | pKd (RHPN1, Q8TCX5) | further results | Binder
below the threshold | below the threshold | 3.7 | below the threshold | below the threshold | 3.5 | below the threshold | below the threshold | below the threshold | 4.18 | below the threshold | below the threshold | below the threshold | below the threshold | below the threshold | 3.66 | below the threshold | below the threshold | below the threshold | 3.55 | pKd (APBA1_2, Q02410): 4.16; pKd (PICK1, Q9NRD5): 4.25; pKd (GRIP2_5, Q9C0E4): below the threshold; pKd (GRIP1_3, Q9Y3R0): below the threshold; pKd (NHERF3_1, Q5T2W1): 4.06; pKd (NOS1, P29475): 3.61 | DSEEELPTRL [GRK6, P43250]
below the threshold | below the threshold | below the threshold | below the threshold | below the threshold | 3.83 | below the threshold | below the threshold | below the threshold | 3.62 | below the threshold | 3.9 | below the threshold | below the threshold | below the threshold | 3.92 | 3.88 | below the threshold | below the threshold | below the threshold | pKd (APBA1_2, Q02410): below the threshold; pKd (PICK1, Q9NRD5): below the threshold; pKd (GRIP2_5, Q9C0E4): below the threshold; pKd (GRIP1_3, Q9Y3R0): below the threshold; pKd (NHERF3_1, Q5T2W1): 3.64; pKd (NOS1, P29475): below the threshold | KEKASTETEC [TRPM1, Q7Z4N2]
below the threshold | below the threshold | below the threshold | below the threshold | below the threshold | below the threshold | below the threshold | 3.82 | below the threshold | below the threshold | below the threshold | below the threshold | below the threshold | below the threshold | below the threshold | 4.23 | below the threshold | below the threshold | below the threshold | below the threshold | pKd (APBA1_2, Q02410): below the threshold; pKd (PICK1, Q9NRD5): 4.01; pKd (GRIP2_5, Q9C0E4): below the threshold; pKd (GRIP1_3, Q9Y3R0): below the threshold; pKd (NHERF3_1, Q5T2W1): below the threshold; pKd (NOS1, P29475): below the threshold | QKASRNESTF [POLR1D, P0DPB6]
below the threshold | below the threshold | below the threshold | below the threshold | below the threshold | 3.82 | below the threshold | below the threshold | below the threshold | below the threshold | below the threshold | below the threshold | below the threshold | 4.12 | below the threshold | 3.96 | below the threshold | below the threshold | below the threshold | 3.51 | pKd (APBA1_2, Q02410): below the threshold; pKd (PICK1, Q9NRD5): 4.11; pKd (GRIP2_5, Q9C0E4): below the threshold; pKd (GRIP1_3, Q9Y3R0): below the threshold; pKd (NHERF3_1, Q5T2W1): 5.02; pKd (NOS1, P29475): below the threshold | RDYTQSSSSL [GRM5, P41594]

Source: publication PMC9482650, “Quantitative fragmentomics allow affinity mapping of interactomes” (Nature Communications, 2022)
